T1: human MS4A4A ECL2 peptide (amino acid residues 159-179), free (human)
T1 construct: synthetic peptide; also called huMS4A4A-ELC2 free-peptide
T1 peptide: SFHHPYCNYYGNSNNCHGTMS

T2: human MS4A4A ECL1 peptide (amino acid residues 86-98) (human)
T2 construct: synthetic peptide
T2 peptide: CMASNTYGSNPIS


Legend:
human MS4A4A [1] = target: T3, human MS4A4A (human, UniProt Q96JQ5 1-239); assay: FACS, parental U937 cells (endogenous human MS4A4A, not overexpressed), 5 ug/ml
Protocol: (§1) Purified huIgG1 chimeric anti-MS4A4A antibodies were screened for their ability to differentially bind MS4A4A on U937 cells stably overexpressing human MS4A4A, U937 cells with human MS4A4A knocked out, and parental U937 cells. Differential binding to MS4A4A expressed on these cells was assessed by FACS analysis using 5 μg/ml of purified anti-MS4A4A chimeric antibodies, as described above.

human MS4A4A [2] = target: T3, human MS4A4A; assay: FACS, U937 cells overexpressing human MS4A4A, 5 ug/ml
Protocol: as §1

[3] = target: T1, human MS4A4A ECL2 peptide (amino acid …); assay: peptide ELISA, supernatant
human MS4A4A [4] = target: T3, human MS4A4A; assay: FACS, U937 cells, supernatant
Protocol: (§2) Positive clones identified in Example 22 above were expanded and then rescreened for specificity against U937, K562, and/or 300.19 cells stably overexpressing human MS4A4A or cyno MS4A4A and parental U937, K562, and/or 300.19 cells. These experiments were performed using supernatants from hybridoma clones which had undergone further expansion after initial selection. Briefly, stably transfected cells were labeled with LIVE/DEAD Fixable Aqua Dead Cell Stain Kit (ThermoFisher Scientific Cat#L34957) on ice for 30 minutes. […] 2×10⁵ cells were aliquoted per well in 96-well U-bottom plates and incubated with 50 μl of culture supernatant on ice for 30 minutes. […] Following this secondary incubation, the cells were again washed twice with ice-cold FACS buffer and resuspended in a final volume of 200 μl of FACS buffer. Analysis was performed on a FACS Canto system (BD Biosciences), with gates drawn to exclude dead (Aqua-positive) cells.
(§3) The APC ratio was calculated for each antibody as follows. […] For cell lines overexpressing human MS4A4A (h4A) or cyno MS4A4A (cy4A), the ration was calculated by comparing the binding measured to the binding observed on the corresponding parental cell lines.

cynomolgus (cyno) MS4A4A = target: T4, cynomolgus (cyno) MS4A4A (cynomolgus); assay: FACS, 300.19 cells, supernatant
T4 construct: also called cy4A; Cyno 4A
Protocol: as §2, §3

[5] = target: T2, human MS4A4A ECL1 peptide (amino acid …); assay: peptide ELISA
Protocol: Briefly, 96-well polystyrene plates were coated with […] of synthetic free or BSA-conjugated peptides in coating buffer (0.05M carbonate buffer, pH9.6, Millipore Sigma Cat#C3041) overnight at 4° C. Coated plates were then blocked with ELISA diluent (PBS+0.5% BSA+0.05% Tween20) for 1-hour, washed 3×300 μL in PBST (PBS+0.05% Tween20, Thermo Cat#28352), and then the antibodies were added to the plate (50 μl/well). After 30 mins incubation (room temperature, with shaking), the plates were washed 3×300 μL in PBST. […] After a final set of washes (3×300 μL in PBST), 50 μL of TMB substrate (BioFx Cat#TMBW-1000-01) was added and the reaction was then quenched after 5-10 mins with 50 μL of stop solution (BioFx Cat#BSTP-1000-01). The quenched reaction wells were detected for absorbance at 650nm with a BioTek Synergy Microplate Reader using GENS 2.04 software.

human MS4A4A [6] = target: T3, human MS4A4A; assay: FACS, K562 cells, supernatant
Protocol: as §2, §3

Row | ratio of MFI over secondary antibody alone (human MS4A4A [1]) [ratio] | ratio of MFI over secondary antibody alone (human MS4A4A [2]) [ratio] | binding result [3] | fold increase in MFI (human MS4A4A [4]) [fold] | fold increase in MFI (cynomolgus (cyno) MS4A4A) [fold] | binding result [5] | fold increase in MFI (human MS4A4A [6]) [fold] | Binder
1 | 1.1 | 10 |  |  |  |  |  | anti-MS4A4A antibody 4A-207, huIgG1 chimera (antibody, V domains shown) VH: EVNLEESGGGLVQPGGSMKLSCVASGFTFNNYWMNWVRQSPEKGLEWVAEIRLKSNNYATHYAESVKGRFTISRDDSKSSVYLQMNNLRPEDTAIYYCTTDPPMDYSGQGTPVTVSS VL: QIVLTQSPAFMSASPGEKVTITCSASSSVSYMHWFQQKPGTSPKLWIYSTSNLVSGVPDRFSGSGSGTSYSLTISRMEAEYAATYYCHQRTSYPWTFGGGTKLEIK
2 | 1.1 | 18.5 |  |  |  |  |  | anti-MS4A4A antibody 4A-206, huIgG1 chimera (antibody, V domains shown) VH: EVKLVESGGGLVKPGGSLKLSCAASGFTFSSYTMSWVRQTPEKRLEWVASLSSGGSTYYPDSVKGRFTISRDNARNILYLQMSSLRSEDTAMYYCAKDYYVSSYRWYFDVWGAGTTVTVSS VL: DIQMTQITSSLSASLGDRVTISCRASQDISNYLNWYQQKPDGTVKLLIYYTSNLHSGVPSRFSGSGSGTDYSLTISNLEQEDIATYFCQQGKSFPWTFGGGTKLEIK
3 |  |  | no binding | > 2 | > 2 | no binding |  | anti-MS4A4A antibody 4A-217 (murine) (antibody, V domains shown, murine hybridoma antibody) VH: EVKLVESGGGLVKPGGSLKLSCAASGFTFSSYGMSWVRQTPEKRLEWVAHISGGGTFTHYPDSVKGRFTISRDNAKNNLYLQMSSLRSEDTALYYCAREGAGTRFAYWGQGTLVTVSS VL: DIQMTQTTSSLSASLGDRVTISCRPSQDISNSLNWYQQKPDGTVKLLIYSTSKLHSGVPSRFSGSGSGIDYSLTISNLEQEDIATYFCQQDYTLPWTFGGGTKLDVK
4 | 1.1 | 23.6 |  |  |  |  |  | anti-MS4A4A antibody 4A-217, huIgG1 chimera (antibody, V domains shown) VH: EVKLVESGGGLVKPGGSLKLSCAASGFTFSSYGMSWVRQTPEKRLEWVAHISGGGTFTHYPDSVKGRFTISRDNAKNNLYLQMSSLRSEDTALYYCAREGAGTRFAYWGQGTLVTVSS VL: DIQMTQTTSSLSASLGDRVTISCRPSQDISNSLNWYQQKPDGTVKLLIYSTSKLHSGVPSRFSGSGSGIDYSLTISNLEQEDIATYFCQQDYTLPWTFGGGTKLDVK
5 | 1.1 | 13 |  |  |  |  |  | anti-MS4A4A antibody 4A-213, huIgG1 chimera (antibody, V domains shown) VH: QVQLKESGPGLVAPSQSLSITCTVSGFSLTSYGVHWVRQPPGKGLEWLGVIWVGGSTNYNSALMSRLSISKDNSKSQVFLKMNSLQTDDTAMYYCARAVYYYGSSYYFDYWGQGTTVTVSS VL: not shown
6 |  |  | no binding | > 2 | > 2 | no binding | > 2 | anti-MS4A4A antibody 4A-205 (murine) (antibody, V domains shown, murine hybridoma antibody) VH: EVQLVESGGDLVKPGGSLKLSCAASGFTFSHYGMSWVRQTPDKRLDWVATIGRDGIHTDYRDSVKGRFTISRDNAKNTLYLQMGSLKSEDSAIFYCARHLYYGLYYSMDYWGQGTSVTVSS VL: ENVLTQSPAIMSASPGEKVTMTCSASSSVSFMYWYQQKSSTSPKLWIYDTSKLASGVPGRFSGSGSGNSYSLTISSMEAEDVATYYCFQGSGYPLTFGSGTKLEIK
7 | 1.1 | 19.8 |  |  |  |  |  | anti-MS4A4A antibody 4A-209, huIgG1 chimera (antibody, V domains shown) VH: EVKLLESGGGLVQPGGSLKLSCAASGFDFSRYWMSWVRQAPGKGLEWIGEIKSDSSTINYTPSLKDKFIISRDNAKNTLYLQMSKVRSEDTALYYCARRGFYDYDAWFAYWGQGTLVTVSS VL: QIVLTQSPTLMSASPGEKVTMTCSASSSVTYMYWYQQKPRSSPKPWIYLTSNRASGVPTRFSGSGSGTSHSLTISYMEAEDAATYYCQQWSSNPPTFGAGTKLELR
8 |  |  | no binding | > 2 | > 2 | no binding | > 2 | anti-MS4A4A antibody 4A-208 (murine) (antibody, V domains shown, murine hybridoma antibody) VH: EVHLQQSGAEVVKPGASVKLSCTASGFNIKDTYIHWVMQRPEQGLEWIGRIDPANDNTKYDPKFQGKATITSDTSSNTAYLHLSSLTSEDTAVYYCARIAYGSWALDYWGQGTSVTVSS VL: DIVMTQSQKFMSTSVGDRVIVTCKASQNVDTNVAWYQQKPGQSPKTLIYSASFRYSGVPDRFTGSGSGTDFTLSISNVQSEDLAEYFCQQYNSYPWTFGGGTKLEIK
9 | 1.1 | 19.9 |  |  |  |  |  | anti-MS4A4A antibody 4A-208, huIgG1 chimera (antibody, V domains shown) VH: EVHLQQSGAEVVKPGASVKLSCTASGFNIKDTYIHWVMQRPEQGLEWIGRIDPANDNTKYDPKFQGKATITSDTSSNTAYLHLSSLTSEDTAVYYCARIAYGSWALDYWGQGTSVTVSS VL: DIVMTQSQKFMSTSVGDRVIVTCKASQNVDTNVAWYQQKPGQSPKTLIYSASFRYSGVPDRFTGSGSGTDFTLSISNVQSEDLAEYFCQQYNSYPWTFGGGTKLEIK

Reference: patent publication US20230126400A1 (Alector, published 2023)
